Test results as given in US11472877 (Alector, dated 2022).
Where a chain is given by its changes, count along the chain named. Each block holds one binder with its values, some of them ahead of it.

What was measured:
human TREM2 on BWZ cells = biological target: T1, human TREM2 on BWZ cells (human, UniProt Q9NZC2 19-230); assay: FACS, BWZ cells
T1 construct: whole, on cells; not tied to the cell line; also called BWZ Human TREM2
T1 sequence (looked up): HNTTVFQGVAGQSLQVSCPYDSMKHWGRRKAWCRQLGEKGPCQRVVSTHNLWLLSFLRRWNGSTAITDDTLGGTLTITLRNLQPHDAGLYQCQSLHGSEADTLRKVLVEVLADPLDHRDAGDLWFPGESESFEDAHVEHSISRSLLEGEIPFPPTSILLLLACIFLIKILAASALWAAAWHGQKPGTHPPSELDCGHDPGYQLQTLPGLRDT

mouse TREM2 on BWZ cells = biological target: T2, mouse TREM2 on BWZ cells (mouse, UniProt Q99NH8 19-227); assay: FACS, BWZ cells
T2 construct: whole, on cells; also called BWZ Mouse TREM2
T2 sequence (looked up): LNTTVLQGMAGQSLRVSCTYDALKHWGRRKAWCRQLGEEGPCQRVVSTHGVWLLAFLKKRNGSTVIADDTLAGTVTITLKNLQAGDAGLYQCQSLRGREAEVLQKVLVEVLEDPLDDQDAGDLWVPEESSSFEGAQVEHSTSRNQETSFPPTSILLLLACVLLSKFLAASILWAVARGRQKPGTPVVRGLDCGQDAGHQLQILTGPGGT

binding result (human TREM2 on BWZ cells): no binding
B6: T1-58 (antibody, IgG1, V domains shown)
VH: QLQLQESGPGLVKPSETLSLTCTVSGGSISSSSYYWGWIRQPPGKGLEWIGSIYYSGSTYYNPSLKSRVTISVDTSKNQFSLKLSSVTAADTAVYYCARQEYGDGYFDLWGRGTLVTVSS
VL: not shown
notes: huIgG1; also called TI-58; ADI-19133

binding result (human TREM2 on BWZ cells): no binding
binding result (mouse TREM2 on BWZ cells): no binding
B7: T1-57 (antibody, IgG1, V domains shown)
VH: EVQLVESGGGLVQPGRSLRLSCAASGFTFDDYAMHWVRQAPGKGLEWVSGITWNSGSIGYADSVKGRFTISRDNAKNSLYLQMNSLRAEDTALYYCAKGPRYSKPYFDYWGQGTLVTVSS
VL: DIQMTQSPSSVSASVGDRVTITCRASQGIDSWLAWYQQKPGKAPKLLIYAASSLQSGVPSRFSGSGSGTDFTLTISSLQPEDFATYYCQQRAVFPPTFGGGTKVEIK
notes: huIgG1; also called TI-57; ADI-19132

binding result (human TREM2 on BWZ cells): no binding
binding result (mouse TREM2 on BWZ cells): no binding
B8: T1-44 (antibody, IgG1, V domains shown)
VH: QVQLVQSGAEVKKPGASVKVSCKASGYTFTSYYMHWVRQAPGQGLEWMGVINPSGGSTSYAQKFQGRVTMTRDTSTSTVYMELSSLRSEDTAVYYCAREGSGYDESMDVWGQGTTVTVSS
VL: not shown
notes: huIgG1; also called TI-44; ADI-19119

binding result (human TREM2 on BWZ cells): no binding
binding result (mouse TREM2 on BWZ cells): no binding
B11: T1-46 (antibody, IgG1, V domains shown)
VH: B8 VH
VL: not shown
notes: huIgG1; also called TI-46; ADI-19124

binding result (human TREM2 on BWZ cells): no binding
binding result (mouse TREM2 on BWZ cells): no binding
B12: T1-45 (antibody, IgG1, V domains shown)
VH: B8 VH
VL: not shown
notes: huIgG1; also called TI-45; ADI-19123

binding result (human TREM2 on BWZ cells): no binding
binding result (mouse TREM2 on BWZ cells): no binding
B13: T1-48 (antibody, IgG1, V domains shown)
VH: B8 VH with S54G, G100A, S101G, G102Q, Y103T, D104S, E105S, S106A, M107L, T115M
VL: not shown
notes: huIgG1; also called TI-48; ADI-19121

More lines, now with the values behind:

B1: T1-38 (antibody, IgG1, V domains shown)
VH: QVQLVESGGGVVQPGRSLRLSCAASGLTFSSYGMHWVRQAPGKGLEWVAVISYDGSNKYYADSVKGRFTISRDNSKNTLYLQMNSLRAEDTAVYYCARERGTYYYASGWANWGQGTLVTVSS
VL: not shown
notes: huIgG1; also called TI-38; ADI-19112
binding result (human TREM2 on BWZ cells): no binding
binding result (mouse TREM2 on BWZ cells): no binding

B2: T1-39 (antibody, IgG1, V domains shown)
VH: EVQLVESGGGLVKPGGSLRLSCAASGFTFSSYSMNWVRQAPGKGLEWVSSISSSSNYIYYADSVKGRFTISRDNAKNSLYLQMNSLRAEDTAVYYCARRGGSSSTGLLYWGQGTLVTVSS
VL: DIQLTQSPSSVSASVGDRVTITCRASQDISSWLAWYQQKPGKAPKLLIYAASSLQSGVPSRFSGSGSGTDFTLTISSLQPEDFATYYCQQSLTHPTFGGGTKVEIK
notes: huIgG1; also called TI-39; ADI-19113
binding result (human TREM2 on BWZ cells): no binding
binding result (mouse TREM2 on BWZ cells): no binding

B3: T1-50 (antibody, IgG1, V domains shown)
VH: QVQLVQSGAEVKKPGASVKVSCKASGYTFTSYYMHWVRQAPGQGLEWMGIINPGGGSTSYAQKFQGRVTMTRDTSTSTVYMELSSLRSEDTAVYYCAREAGTMSSAFDIWGQGTMVTVSS
VL: not shown
notes: huIgG1; also called TI-50; ADI-19125
binding result (human TREM2 on BWZ cells): no binding
binding result (mouse TREM2 on BWZ cells): no binding

B4: T1-41 (antibody, IgG1, V domains shown)
VH: not shown
VL: DIQLTQSPSSVSASVGDRVTITCRASQDISSWLAWYQQKPGKAPKLLIYAASSLQSGVPSRFSGSGSGTDFTLTISSLQPEDFATYYCQQAVIHPPYTFGGGTKVEIK
notes: huIgG1; also called TI-41; ADI-19115
binding result (human TREM2 on BWZ cells): no binding
binding result (mouse TREM2 on BWZ cells): no binding

B5: T1-42 (antibody, IgG1, V domains shown)
VH: QVQLVESGGGVVQPGRSLRLSCAASGFTFSSYGMHWVRQAPGKGLEWVAVIWYDGSNKGYADSVKGRFTISRDNSKNTLYLQMNSLRAEDTAVYYCARELMVTSGGWLYGMDVWGQGTTVTVSS
VL: EIVMTQSPATLSVSPGERATLSCRASQSVSSNLAWYQQKPGQAPRLLIYGASTRATGIPARFSGSGSGTEFTLTISSLQSEDFAVYYCQQYNVHPPRTFGGGTKVEIK
notes: huIgG1; also called TI-42; ADI-19116
binding result (human TREM2 on BWZ cells): no binding
binding result (mouse TREM2 on BWZ cells): no binding

B9: T1-10 (antibody, IgG1, V domains shown)
VH: B8 VH with V50I, Y103S, D104W, S106T, M107L, T115M
VL: not shown
notes: huIgG1; also called TI-10; ADI-19077
binding result (human TREM2 on BWZ cells): no binding
binding result (mouse TREM2 on BWZ cells): no binding

B10: T1-8 (antibody, IgG1, V domains shown)
VH: B8 VH with V50I, G100V, G102M, Y103T, D104A, E105A, M107L, T115M
VL: not shown
notes: huIgG1; also called TI-8; ADI-19074
binding result (human TREM2 on BWZ cells): no binding
binding result (mouse TREM2 on BWZ cells): no binding
